Consider four molecules from paper doi:10.1101/2025.08.24.672003, “Structural characterization of MAM01 and other cost-effective engineered monoclonal antibodies for malaria prevention” (bioRxiv, 2025).

Experiment [1] deals with T1, PfCSP junctional region peptide, biotinylated (NPDPNANPNVDPNANP) (Plasmodium falciparum, also: biotin label, end not given here).
T1 peptide: NPDPNANPNVDPNANP
Briefly: BLI.

For experiment [2], the target named is T2, PfCSP major repeat region peptide NPNA3, biotinylated (Plasmodium falciparum, also: biotin label, end not given here).
T2 peptide: NPNANPNANPNA
Briefly: BLI.

The target in experiment [3] is T3, PfCSP minor repeat region peptide, biotinylated (NVDPNANPNVDPNANPNVDP) (Plasmodium falciparum, biotinylated (end not stated)).
T3 peptide: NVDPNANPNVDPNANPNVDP
Briefly: BLI.

The target of experiment [4] is T4, PfCSP N-terminal junctional region peptide, biotinylated (KQPADGNPDPNANPNV) (Plasmodium falciparum, also: biotin label, end not given here).
T4 peptide: KQPADGNPDPNANPNV
Briefly: BLI.

For experiment [5], the target named is T5, PfCSP N-terminal junctional region peptide, biotinylated (KQPADGNPDPNANPNV) (Plasmodium falciparum 3D7, also: biotinylated, end not given here).
T5 construct: Plasmodium falciparum circumsporozoite protein (PfCSP), N-terminal junctional region; source: synthetic peptide, bought: Innopep Inc
T5 chain: KQPADGNPDPNANPNV
In words: BLI; biotinylated peptides (10 ug/mL) loaded on streptavidin biosensors; Fabs in solution at 200, 100, 50, 25, 12.5 nM; kinetics buffer 1X PBS, 0.01% BSA, 0.002% Tween 20; 300 s association, 300 s dissociation; Octet Red; 1:1 global fit. To be noted: both partners purified.

The target of experiment [6] is T6, PfCSP junctional region peptide, biotinylated (NPDPNANPNVDPNANP) (Plasmodium falciparum 3D7, also: biotinylated, end not given here).
T6 construct: Plasmodium falciparum circumsporozoite protein (PfCSP), junctional region; source: synthetic peptide, bought: Innopep Inc
T6 chain: NPDPNANPNVDPNANP
Described as above. To be noted: both partners purified.

Ends that are not written are not given here.

B1: Fab MS-1805 (engineered AB007088) (Fab, V domains shown)
VH: QVQLVESGGGVVQPGRSLRLSCAASGFTFNTYGMHWVRQAPGKGLEWVAIIWYDGSQKYYADSVQGRFTISRDNHKNTLYLQMNSLRAEDTAVYFCVRVRFSVGPHGSAFDLWGQGTMVTVSS
VL: GVQMTQSPSTLSASVGDRVTLTCRASQSISSWLAWYQQKPGKAPKLLIYDASSLESGVPSRFSGSGSGTEFTLTISSLQPDDFATYYCQQYNSYSFWTFGQGTKVEIK
B1: the Kd turned out to be 20 nM in experiment [1], 25 nM in experiment [2], 28 nM in experiment [3] and 23 nM in experiment [4].

B2: Fab 7088 (antigen-binding fragment of mAb AB007088) (Fab, V domains shown)
VH: QVQLVESGGGVVQPGRSLRLSCAASGFAFNTYGMHWVRQTPGKGLEWVAIIWYDGSQKYYADSVQGRFIISRDNHKNTLSLQMNGLRAEDTAVYFCVRVRFSVGPHGSAFDLWGQGTMVIVSS
VL: GVQMTQSPSTLSASVGDRVTLTCRASQSISSWLAWYQQKPGKAPKLLIYDASSLESGVPSRFSGSGSGTEFTLTISSLQPDDFATYYCQQYNSYSFWTFGQGTKVEIK
B2: the Kd in experiment [1] was 16 nM; in experiment [2], 15 nM; in experiment [3] it was 20 nM; in experiment [4], 15 nM.

B3: Fab 224 (antigen-binding fragment of mAb AB000224) (Fab, V domains shown)
VH: EVQLVESGGGLVQPGRSLRLPCTASGFSFGDHAMSWVRQAPGKGLEWVGFIRKTTYGATTHYAAAVRGRFTISRDDSKSIVYLQMNSLKTEDTAVYFCTRVQLDYGPGYQYYGMDVWGQGTTVTVSS
VL: ESVLTQPPSVSGAPGQRVTISCTGMNSNIGAGYDVYWYQQLPGRAPKLLIYGNSNRPSGVPDRFSGSRSGTSASLAITGLQAEDEADYYCQSYDTSLNGWAFGGGTKLTVL
notes: Fab 224 heavy chain (IGHV3-49) is in PDB 6WFY (cited) and PDB 9NOB (apo, deposited here); Fab 224 light chain (IGLV1-40) is in PDB 6WFY (cited) and PDB 9NOB (apo, deposited here); IGHV3-49/IGLV1-40; the expression methods name only the Fab genes of MAM01, 7088 and MS-1805, not Fab 224
For B3, the binding result in experiment [5] is given as “no binding (tested: 200 nM)”. The Kd in experiment [1] amounted to 72 nM; in experiment [2], 3.5 nM; in experiment [3] it was 2.9 nM.

B4: Fab MAM01 (engineered AB000224) (Fab, V domains shown)
VH: EVQLVESGGGLVQPGRSLRLSCTASGFSFGDHAMSWVRQAPGKGLEWVGFIRKTTYGATTHYAAAVRGRFTISRDDSKSTVYLQMNSLKAEDTAVYFCARVQLDYGPGYQYYGMDVWGQGTTVTVSS
VL: QSVLTQPPSVSGAPGQRVTISCTGMNSNIGAGYDVYWYQQLPGTAPKLLIYGNSNRPSGVPDRFSGSRSGTSASLAITGLQAEDEADYYCQSYDTSLNGWAFGGGTKLTVL
notes: as the heavy chain of m1 (Fab 224, PDB 6WFY) with the stated framework changes (Kabat numbering); as the light chain of m1 (Fab 224, PDB 6WFY) with the stated changes (Kabat numbering); Fab only; the LS mutations of the Fc are not part of it; also called MS-1797; MAM01 Fab; source: ExpiCHO cells, purified (HiTrap Protein G HP, size exclusion chromatography)
In the case of B4, the Kd was found to be 108 nM in experiment [6], 4.1 nM in experiment [2] and 3.5 nM in experiment [3]. Moreover, in experiment [5], the binding result is reported as “no binding (tested: 200 nM)”.
